Key:
H358 cells [1] = test: Immunofluorescence and confocal imaging of E-cadherin and vimentin in ligand-treated H358 cells; type: cell-based, human; settings: cells treated for 7 days
Description: Cells were plated on coverslips on experimental day 0, stimulated with ligand on day 1 and refreshed with medium and ligand on day 3-4. On day 7, cells were fixed at room temperature for 10 minutes in 4% paraformaldehyde (EMS #15701)/PBS (Gibco #14190). Cells were blocked in 3% BSA/PBS and incubated with primary antibody (E-cadherin, Santa Cruz #sc21791 and Vimentin, Chemicon #AB5733) diluted in blocking buffer for two hours at room temperature. Cells were washed and incubated in secondary antibody (Invitrogen #A11029 and Chemicon #AP194R) followed by nuclear counterstain TO-PRO3 (Invitrogen #T3605). Coverslips were mounted on slides with Pro-Long Gold anti-fade reagent (Invitrogen P36934). Images were captured on a Leica DMRXE microcope with SP2 scanner using Leica Confocal Software.

H358 cells [2] = test: Induction of EMT in H358 cells by growth factors and cytokines (immunoblot of EMT biomarkers); type: cell-based, human; settings: seven day treatment of H358
Description: The human line H358 was cultured in the appropriate ATCC recommended supplemented media. Growth factor and cytokine induced EMT was monitored over a 7-14 day period. […]
Cell lines were treated as indicated in the text and figure legends. […] Protein concentration was determined by micro-BCA assay (Pierce, #23227). […]

B1: OSM: oncostatin M (R&D Systems #295-OM) (protein, UniProt P13725 26-221, looked up)
Oncostatin-M: AAIGSCSKEYRVLLGQLQKQTDLMQDTSRLLDPYIRIQGLDVPKLREHCRERPGAFPSEETLRGLGRRGFLQTLNATLGCVLHRLADLEQRLPKAQDLERSGLNIEDLEKLQMARPNILGLRNNIYCMAQLLDNSDTAEPTKAGRGASQPPTPTPASDAFQRKLEGCRFLHGYHRFMHSVGRVFSKWGESPNRSRR
- extent of EMT at the single cell level (E-cadherin and vimentin expression and localization) (H358 cells [1]): partial EMT
- E-cadherin repression or vimentin induction as single agents (H358 cells [2]): neither HGF or OSM as single agents produced significant

From patent US7951549B2, “Methods for the identification of agents that inhibit mesenchymal-like tumor cells or their formation” (OSI Pharmaceuticals, Inc., priority 2008, dated 2011)
